In publication doi:10.1101/2021.04.02.438172:
Values belong to the substance of their own block, whether it stands above or below them.

Columns and labels:
[1] = target: Sandercyanin His-108-Ala (Stizostedion vitreum (formerly Sander vitreus), walleye)
[2] = target: Sandercyanin Phe-106-Ala (Stizostedion vitreum (formerly Sander vitreus), walleye)
[3] = target: Sandercyanin Tyr-142-Ala (Y142A) (Stizostedion vitreum (formerly Sander vitreus), walleye)
[4] = target: wild-type Sandercyanin (Stizostedion vitreum (formerly Sander vitreus), walleye); experiment: SEC

stoichiometry N [1]: 4
Substance: Sandercyanin His-108-Ala (natural protein)

stoichiometry N [2]: 4
Substance: Sandercyanin Phe-106-Ala (natural protein)

stoichiometry N [3]: 4
Substance: Sandercyanin Tyr-142-Ala (Y142A) (natural protein)

stoichiometry N [4]: 4
Substance: wild-type Sandercyanin (natural protein)
